This data set is described as follows: amyloid nucleation score (Sup35N fusion, yeast selection) (log enrichment); library NNK2; higher = more nucleation; inactive = no reads after selection. In a few lines: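 Psi-negative yeast expressed Sup35N fused to peptides of 20 random codons. They were induced 24 hours with 100 μM copper sulfate, grown 7 days at 30°C without adenine and uracil, and their plasmid inserts from input and output were Illumina-sequenced. The nucleation score is the DiMSum log enrichment of output over input reads, centred on the mode score of non-aggregating sequences. Sequences with under 100 input reads were excluded.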

± gives the uncertainty stated by the source.

In turn, FDGHLINTFPRADASIAEDN registered an amyloid nucleation score of -0.454 ± 0.41.

MIAVV displayed an amyloid nucleation score of 0.861 ± 0.2. With NIGSWGVSRLSCLYAGLANG, the amyloid nucleation score is 0.549 ± 0.42. With SPSDSAL the figure was -0.501 ± 0.64; with LYYGNPEKIPADGLSSHIMQ, 3.7 ± 0.063; with SLDQFSLSPKAVQRVACVAQ, 0.251 ± 0.54. The value for LRSACCLIRSLNTAVCGWTK was 4.22 ± 0.048; that for LNTSSYFVIDDFWIIFRRCR was -0.814 ± 0.55; that for RFDHMSYRSCPRESEFEVTC was “inactive”. The value for PLCFLVMGHGTRCVCRWNTG was -0.464 ± 0.63; that for RNGLTFRRTYSAYC was 1.01 ± 0.25; that for SWINLQVS was -1.5 ± 0.75.

For YHWIIIRVA, the amyloid nucleation score is -0.601 ± 0.79. The substance SVTRRVSYRSYLVLVGEWKQ showed an amyloid nucleation score of 0.901 ± 0.32. With RSIMIRHLKFRARGHTFSVN the figure was 0.143 ± 0.36.

With QTGQGYIVQGTVNSMKGCFR, the amyloid nucleation score was -0.038 ± 0.65.

Turning to FINSVVKLLLGNDMSCYSCH, the amyloid nucleation score is 5.65 ± 0.081. The value for CTSHWAYEDEDFFIDRLYFT was -0.796 ± 0.3. Consider CHRLSNLKRVDDAGFVRWNY, for which the amyloid nucleation score was -0.477 ± 0.23. With GGWLYANGEYWWSTG the figure was 1.53 ± 0.58. In the case of DSGNDLCDNYPVCWVKFCYC, the amyloid nucleation score is 5.2 ± 0.063. As for TITPKSSICNPLRDNSYSVV, the amyloid nucleation score was determined as 0.136 ± 0.65.

In the case of TGDCRT, the amyloid nucleation score came to 0.233 ± 0.2. GMKSFR yielded an amyloid nucleation score of -1.68 ± 1.1. HRDGLPVVTL came in with an amyloid nucleation score of 0.034 ± 1.1. LHLEMTEW: the amyloid nucleation score entry is “inactive”. In turn, KAWFLESSKYSYRSWFR returned an amyloid nucleation score of -0.641 ± 0.38. As for LLTCEASRTPARSQLLASEG, the amyloid nucleation score came to 0.851 ± 0.4.

As for RVCMINSYLLVTRCVGDN, the amyloid nucleation score came out at 8.387 ± 0.028. The value for NFQMTVRYWVKDGVESQEIN was 4.192 ± 0.033; that for INGWEPSIIDVIYNAHQIGP was 0.107 ± 0.79; that for FLNHE was “inactive”.

VFSEWWFTANAACSAQCYEW registered an amyloid nucleation score of 0.789 ± 0.33. YCSYQVVRGRPSVAGRDNLQ gave an amyloid nucleation score of -0.424 ± 0.63. The value for QVLFVRFRRYVYQRMWACWG was 0.405 ± 0.74. The substance VIKFDQISCNSFPNSLL showed an amyloid nucleation score of -0.479 ± 0.55. Turning to SMICGFKLASHSVG, the amyloid nucleation score is -0.65 ± 0.45.

On to AYWYSQRAMGFKHSLFLT, for which the amyloid nucleation score is -0.921 ± 0.41. As to KSLKCFHLVRFTFS, the amyloid nucleation score is -0.492 ± 0.36.

For YYLYWHFKIYWRQHLVNAFN, the amyloid nucleation score is -1 ± 1.1. In the case of HARHRGVCFWCVADSAPVYH, the amyloid nucleation score was -0.012 ± 1.1. The value for YFRISTWRFRTRHLGPCERG was 5.708 ± 0.054. Consider LLDYLYDIGRHTKGK, for which the amyloid nucleation score is -0.337 ± 1.1. With GDVDEWCLTGLGLSNIMVGQ the figure was 1.52 ± 0.58.

As for SVYLNPHPTLMGNQSVLKLI, the amyloid nucleation score worked out at 1.29 ± 0.66. The substance YGSVR gave an amyloid nucleation score of 0.669 ± 0.37. The value for IGLHVWHLSLKGSSDLSGTV was 1.85 ± 0.12; that for RVMRVISRPEELAWVA was 0.602 ± 0.29.

Turning to NLFNLSCHGLLNERKHLSGV, the amyloid nucleation score was -0.442 ± 0.44. The value for WSLLV was 0.478 ± 0.8; that for RISSSGRP was 2.03 ± 0.082. Take WCYELIYV: the amyloid nucleation score was -0.573 ± 0.79. With SVVRTRTRTVRVMETWISVW, the amyloid nucleation score turned out to be 0.237 ± 1. CLDFYFIVGNFNQHLVRCVL came in with an amyloid nucleation score of 1.79 ± 0.16. The value for TIGHCTEWAINMSYVFNRGY was 3.74 ± 0.053; that for LTNNHYIKPFRSRIRVMVMY was 4.79 ± 0.069; that for FMAWTDSLIYKHAICAATL was -0.031 ± 0.39. The substance RLYSFCGIN showed an amyloid nucleation score of 1.68 ± 0.093. The value for GGFDYCFIMYHRNELDSGLG was -0.646 ± 0.23.

As to NYLMWVITSTYWRHGRESWA, the amyloid nucleation score amounted to 3.03 ± 0.057. On to VDWCWGLWT, for which the amyloid nucleation score worked out at 0.945 ± 0.24.

SYSPSVQ came in with an amyloid nucleation score of -0.043 ± 0.55. With GSVYKCLGSWVIYRFIFSWV the figure was 1.19 ± 0.66. On to KSYLWASAAVEGNCYNPVNR, for which the amyloid nucleation score was -0.195 ± 0.48. With SFFCMKQMLNFL the figure was 0.533 ± 0.35; with SWPPKAQLMAVARCSAREAD, -0.337 ± 1.1; with RWARQRAWTRLLNGE, 1.18 ± 0.48. The value for SRRFFQKIRLWGMTDQQKGM was 3.08 ± 0.072; that for EITEDSMVLVRWSGARNFHM was 2.56 ± 0.15. The value for YLLWSTVSAAFSDCRGLKYG was “inactive”. IYRGESIIWVNNSWIEDSLR: the amyloid nucleation score worked out at 1.56 ± 0.12.

In turn, KELYTSVSQGLCRYSISSCR came in with an amyloid nucleation score of -0.786 ± 0.35.

The substance DGHVELCISAKDYD showed an amyloid nucleation score of -0.249 ± 0.53. With RELLSLSYSLVMCVVLRV the figure was 0.734 ± 0.18. For QHTKGHSPEWD, the amyloid nucleation score amounted to 1.47 ± 0.28. The value for SKGSTGLRIVLFHFTCVVID was 1.99 ± 0.17. With LYPLCYGL the figure was -0.829 ± 1.1.

AGCGIPALTYNNRRAKTHAQ had an amyloid nucleation score of 0.901 ± 0.53. Substance TRTNEVSGNAESKNCRCYIG yielded an amyloid nucleation score of 0.404 ± 0.29. With VIEIWSN the figure was -0.531 ± 1.1; with HSFLPRGHVADYNKLPVWSV, -0.707 ± 0.61. For GVTSCLRRPWFKYVILSPRP, the amyloid nucleation score stood at 1.44 ± 0.21. Substance SSLSGYGSYGLLPRWLRLVT had an amyloid nucleation score of 1.81 ± 0.4. With LLCSPEGVYGKCTGGFRQTL the figure was 0.581 ± 0.39; with IGMCLILRNPYIVLSDRWSS, 0.308 ± 0.39; with SRLISFLRSRQDDSQISLGW, -0.445 ± 0.49. Regarding FYQVNLPSCLNSDDNRCS, the amyloid nucleation score entry is “inactive”. The substance VYVWDELFVNKKANWTDL yielded an amyloid nucleation score of 1.29 ± 0.47.

The substance PAIHVVDTRVGWRHSMSGYS returned an amyloid nucleation score of 1.72 ± 0.15. Regarding RLYWVGGATGRFD, the amyloid nucleation score amounted to 2.02 ± 0.19.

AVLFNDTWGGFAPNWYLLLS displayed an amyloid nucleation score of 0.474 ± 0.38. Turning to CARFAN, the amyloid nucleation score turned out to be 0.599 ± 0.64. QSRSRIGFGQCGRFGTAWWV yielded an amyloid nucleation score of 0.605 ± 0.45.

FHGGNFATDWFLWFINWEVA returned an amyloid nucleation score of -0.259 ± 0.65.

For the substance YRMAAVIYIYIIRFSGSCMW, the amyloid nucleation score was -2.08 ± 0.62. LVIALSFCY yielded an amyloid nucleation score of 3.57 ± 0.069. RANKYVASRFVITFKVACFE yielded an amyloid nucleation score of 0.092 ± 1.1. As for RKWYGQTSARADVAVS, the amyloid nucleation score amounted to 0.232 ± 0.25. The value for DIMTYPLRSINRRFKGVGRR was 4.481 ± 0.039; that for SNPDSLVLAGMLARMAYRKL was -0.423 ± 0.61; that for ILNCVMYLICKYVFII was 2.16 ± 0.14.

In turn, MRQSNDWLFFLTNGTKCGEL yielded an amyloid nucleation score of -0.162 ± 0.46. The value for TAASISIDRTKSMPLSDRMY was “inactive”; that for VKWKLGLTWMVVIIDGVLCV was 0.963 ± 0.35; that for WSVVLWDVEGYWASASSQLW was 0.907 ± 0.35.

LATLVNCCTIVNRSNFGIMH returned an amyloid nucleation score of 6.985 ± 0.061. With EWILTELYHWFNFFYCRDGV the figure was -1.2 ± 1.1; with QSVQFRWRLCLAGFVGTGWR, 3.06 ± 0.089. With VSSMHFFWF the figure was -0.378 ± 0.54.

The substance IYLSTCTYF displayed an amyloid nucleation score of 0.155 ± 0.49.

Regarding TRHSGKLLFNILMFRVMSCR, the amyloid nucleation score was -0.36 ± 0.74. The value for ISERKCCKVLYISAIRVLNF was 0.034 ± 1.1; that for MHSLCRM was -1.24 ± 0.53. With IADIVEHCCAVRVCALGGLM the figure was 0.393 ± 0.8; with YLIKMTCVGIMFSV, 6.592 ± 0.04; with SHGEKSVDDEGSGIGERWQC, 1.27 ± 0.33. The value for KISSMAVI was 0.069 ± 0.48. In turn, FWALCVASVICYFVRMLSLA had an amyloid nucleation score of 0.169 ± 0.3. In the case of LRQGCFQTVKLDYRES, the amyloid nucleation score was -0.032 ± 1.1. The value for HRMRVSIGATYVTALYQVKD was 3.18 ± 0.095; that for RFILMNLAIVVDFVGS was 6.92 ± 0.078. The value for RFSCTKFRGKGLFWMLKCVL was -0.835 ± 0.27. As to YNSCFYQKWVMCGHSCYHQV, the amyloid nucleation score came to 4.77 ± 0.11.

In turn, LSSSMSSSRASQDFGFLGVH registered an amyloid nucleation score of 0.877 ± 0.48. With DCMTMINLICNGMPAICRMT the figure was 0.445 ± 0.18; with VSSETSGFMIGYLYVDLNGV, -0.814 ± 0.4; with GICPWTRLALFCRSGNVYRG, 1.34 ± 0.15. Substance KLFQNHLIINCPAMVISNEQ registered an amyloid nucleation score of 7.609 ± 0.057. As for SSDYGIQPCFTTTSLLLLFN, the amyloid nucleation score was -0.914 ± 0.48.

Regarding LEQFYCTMGSSFNMNGGMVI, the amyloid nucleation score is -0.436 ± 0.29. The value for SRDVSLRYCTWCPGVN was 0.789 ± 0.22; that for LSYRHNGPHPGGYNCTGSRV was “inactive”. The value for TLLVKSKDYRNANSG was 0.185 ± 0.5; that for RYPIVRTDMYIIVKFI was 0.509 ± 0.81; that for NYCVLSFDISGYAFYKEGLG was -0.492 ± 1.1.

The substance IRFDFSC came in with an amyloid nucleation score of 1.51 ± 0.17.

For PNDAN, the amyloid nucleation score amounted to 0.043 ± 0.28. IGESLRYIRRVILSMIFHLA came in with an amyloid nucleation score of 1.18 ± 0.66. Take GLPRMRSRYTYRGKYVCMCM: the amyloid nucleation score was 1.12 ± 0.36.
